Results as given in the supplement of paper PMC9112550, “Optimization of the antimicrobial peptide Bac7 by deep mutational scanning” (BMC Biology, 2022).

System: Escherichia coli TOP10
Test: shrunken log2 fold change of peptide-encoding DNA abundance (4.5 h post-induction vs induction); higher = less antimicrobial activity (less host growth inhibition)
Conditions: time post-induction: 4.5 h; library: site-saturation at positions 5, 18, 19, 20
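Also: peptides expressed intracellularly from a pBAD plasmid library in pooled LB shake-flask culture, induced with 0.3% L-arabinose, DNA abundance read by NGS, three biological replicates, DESeq2 with apeglm shrinkage.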

| Sequence | shrunken log2 fold change |
| --- | --- |
| RRIRWRPPRLPRPRPRPRWQPRP | -0.0189 |
| RRIRGRPPRLPRPRPRPSGKPRP | 0.367 |
| RRIRARPPRLPRPRPRPSHNPRP | -0.245 |
| RRIRRRPPRLPRPRPRPCWHPRP | -0.0148 |
| RRIRARPPRLPRPRPRPTANPRP | 0.401 |
| RRIRDRPPRLPRPRPRPEKTPRP | 0.0897 |
| RRIRARPPRLPRPRPRPAPEPRP | 0.777 |
| RRIRSRPPRLPRPRPRPVMVPRP | -0.31 |
| RRIRHRPPRLPRPRPRPLQYPRP | -0.582 |
| RRIRVRPPRLPRPRPRPAYTPRP | -0.286 |
| RRIRIRPPRLPRPRPRPGSNPRP | -0.515 |
| RRIRCRPPRLPRPRPRPWHGPRP | -0.244 |
| RRIRGRPPRLPRPRPRPMEPPRP | 0.245 |
| RRIRKRPPRLPRPRPRPDRDPRP | 0.00592 |
| RRIRWRPPRLPRPRPRPLQAPRP | 0.721 |
| RRIRSRPPRLPRPRPRPAIMPRP | -0.152 |
| RRIRIRPPRLPRPRPRPIRMPRP | -0.346 |
| RRIRARPPRLPRPRPRPYKGPRP | -0.144 |
| RRIRGRPPRLPRPRPRPRVSPRP | 0.45 |
| RRIRGRPPRLPRPRPRPQQDPRP | 0.357 |
| RRIRNRPPRLPRPRPRPDNKPRP | -1.35 |
| RRIRVRPPRLPRPRPRPEEEPRP | 0.0136 |
| RRIRQRPPRLPRPRPRPWSVPRP | -0.0201 |

| Sequence | shrunken log2 fold change |
| --- | --- |
| RRIRNRPPRLPRPRPRPRGWPRP | 0.962 |
| RRIRSRPPRLPRPRPRPAELPRP | 0.0682 |
| RRIRSRPPRLPRPRPRPDFFPRP | -0.0547 |
| RRIRERPPRLPRPRPRPRCVPRP | 0.0448 |
| RRIRMRPPRLPRPRPRPNHVPRP | -0.409 |
| RRIRTRPPRLPRPRPRPSKEPRP | -0.598 |
| RRIRMRPPRLPRPRPRPDWNPRP | -0.0431 |
| RRIRTRPPRLPRPRPRPFKHPRP | -0.126 |
| RRIRQRPPRLPRPRPRPHFHPRP | -0.396 |
| RRIRYRPPRLPRPRPRPAKTPRP | -0.00829 |
| RRIRHRPPRLPRPRPRPKQSPRP | -0.248 |
| RRIRQRPPRLPRPRPRPAMRPRP | 0.718 |
| RRIRGRPPRLPRPRPRPLVAPRP | 1.16 |
| RRIRMRPPRLPRPRPRPCEAPRP | 0.807 |
| RRIRNRPPRLPRPRPRPQRMPRP | 0.0535 |
| RRIRARPPRLPRPRPRPWVVPRP | 0.0153 |
| RRIRMRPPRLPRPRPRPHKEPRP | 0.0586 |
| RRIRWRPPRLPRPRPRPEWYPRP | 0.0654 |
| RRIRNRPPRLPRPRPRPWQTPRP | 0.0295 |
| RRIRMRPPRLPRPRPRPLIIPRP | -0.249 |
| RRIRHRPPRLPRPRPRPDKTPRP | 0.0185 |
| RRIRNRPPRLPRPRPRPHQSPRP | -0.104 |
| RRIRERPPRLPRPRPRPKHVPRP | -0.146 |

| Sequence | shrunken log2 fold change |
| --- | --- |
| RRIRARPPRLPRPRPRPENGPRP | -0.0341 |
| RRIRLRPPRLPRPRPRPAATPRP | 0.379 |
| RRIRYRPPRLPRPRPRPCKVPRP | -0.422 |
| RRIRMRPPRLPRPRPRPMNQPRP | 0.646 |
| RRIRCRPPRLPRPRPRPVEEPRP | -0.0384 |
| RRIRCRPPRLPRPRPRPASYPRP | -0.295 |
| RRIRPRPPRLPRPRPRPPEHPRP | 0.0484 |
| RRIRTRPPRLPRPRPRPWQYPRP | 0.0126 |
| RRIRFRPPRLPRPRPRPPLPPRP | 0.661 |
| RRIRKRPPRLPRPRPRPQMQPRP | 0.134 |
| RRIRQRPPRLPRPRPRPDITPRP | -0.00487 |
| RRIRARPPRLPRPRPRPKRGPRP | 0.565 |
| RRIRYRPPRLPRPRPRPVIVPRP | -0.877 |
| RRIRKRPPRLPRPRPRPPLLPRP | 0.524 |
| RRIRERPPRLPRPRPRPVAYPRP | -0.178 |
| RRIRGRPPRLPRPRPRPIPQPRP | 0.358 |
| RRIRFRPPRLPRPRPRPHYMPRP | -0.737 |
| RRIRLRPPRLPRPRPRPVTHPRP | -0.305 |
| RRIRMRPPRLPRPRPRPKDKPRP | 1.93 |
| RRIRRRPPRLPRPRPRPNCTPRP | 0.00402 |
| RRIRKRPPRLPRPRPRPRPWPRP | 0.947 |
| RRIRMRPPRLPRPRPRPHVTPRP | -0.441 |
| RRIRIRPPRLPRPRPRPDGTPRP | -0.303 |

| Sequence | shrunken log2 fold change |
| --- | --- |
| RRIRARPPRLPRPRPRPQARPRP | 0.233 |
| RRIRKRPPRLPRPRPRPRQRPRP | 1.57 |
| RRIRHRPPRLPRPRPRPNPNPRP | -0.202 |
| RRIRGRPPRLPRPRPRPPFWPRP | 1.09 |
| RRIRNRPPRLPRPRPRPDNWPRP | -0.532 |
| RRIRVRPPRLPRPRPRPSAIPRP | -0.258 |
| RRIRNRPPRLPRPRPRPNDKPRP | -0.549 |
| RRIRLRPPRLPRPRPRPHDRPRP | -0.132 |
| RRIRERPPRLPRPRPRPFPDPRP | -0.00133 |
| RRIRFRPPRLPRPRPRPQWSPRP | -0.485 |
| RRIRNRPPRLPRPRPRPPVQPRP | 0.0479 |
| RRIRLRPPRLPRPRPRPPWVPRP | 0.344 |
| RRIRNRPPRLPRPRPRPPYGPRP | -0.0471 |
| RRIRWRPPRLPRPRPRPGQDPRP | 0.334 |
| RRIRARPPRLPRPRPRPAMQPRP | 0.723 |
| RRIRARPPRLPRPRPRPFACPRP | 0.829 |
| RRIRKRPPRLPRPRPRPKRKPRP | 0.89 |
| RRIRGRPPRLPRPRPRPKLPPRP | 0.821 |
| RRIRMRPPRLPRPRPRPFLNPRP | -0.247 |
| RRIRTRPPRLPRPRPRPSNIPRP | -0.329 |
| RRIRIRPPRLPRPRPRPSLLPRP | -0.374 |
| RRIRHRPPRLPRPRPRPRGYPRP | -0.144 |
